From US20180327494A1 (SUZHOU ALPHAMAB, published 2018)
Changes are numbered by the printed parent chain.

B1: PDL1-27 dAb (VHH)
VHH: QVQLQESGGGSVQAGGSLRLSCAASGNISSRRCMAWFRQAPGKERERVANILTTTGNTYLADSVKGRFTISQNNAKSTVYLQMNSLKPEDTAMYYCAADSFHDPTCTVVASSGAFQYWGQGTQVTVSS
notes: camel heavy chain single domain antibody expressed in E. coli, purified on nickel; also called antibody No. 27; not shown: His tag from expression vector PET32b
B2: PDL1-38 dAb (VHH)
VHH: QVQLQESGGGSVQAGGSLRLSCAVSGFISSRRCMGWFRQAPGKERVGVANITGTGNTYLADSVKGRFTISQNNAKSTVYLQMNSLKPEDTAMYYCAADSFPTCTVVASSGAFQYWGQGTQVTVSS
notes: camel heavy chain single domain antibody expressed in E. coli, purified on nickel; also called antibody No. 38; not shown: His tag from expression vector PET32b
B3: PDL1-81 dAb (VHH)
VHH: QVQLQESGGGSVQAGGSLRLSCAASGNIIRVRCMAWFRQAPGKERERGPNILTTTISTYLADSVKGRFTISQNNAKSTVYLQMNSLKPEDTAMYYCAADSFGYPTCPGPASSGAFQYWGQGTQVTVSS
notes: camel heavy chain single domain antibody expressed in E. coli, purified on nickel; also called antibody No. 81; not shown: His tag from expression vector PET32b
B4: PDL1-87 dAb (VHH)
VHH: QVQLQESGGGSVQAGGSLKLSCAASGYIFSSCGMGWYRQAPGKERELVSTISSDGTTSYADSVKGRFTISQDNAKNTLYLQMNSLKTEDTAVYYCVADCPPIPEFTSCSGGYCLSGDYWGQGTQVTVSS
notes: camel heavy chain single domain antibody expressed in E. coli, purified on nickel; also called antibody No. 87; not shown: His tag from expression vector PET32b
B5: PDL1-69 dAb (VHH)
VHH: QVQLQESGGGSVQAGGSLRLSCAVQRNISSSYCMAWFRQAPGKQRERVDKILTTPGNTYLADSVKGRFTISQNNAKSTVYLQMNSLKPEDTAMYYCAADSFQKPTCTVVASWPAFQYWGQGTQVTVSS
notes: camel heavy chain single domain antibody expressed in E. coli, purified on nickel; also called antibody No. 69; not shown: His tag from expression vector PET32b
B6: PDL1-10 dAb (VHH)
VHH: QVQLQESGGGSVQAGGSLRLSCAASGNIVSSYCMGWFRQAPGKERVGVAAIDSDGTTKYADSMKGRFTISKDNAKNTLDLQMNSLKPEDTAMYYCVARLNCPGPVDWVPMFPYRGQGTQVTVSS
notes: camel heavy chain single domain antibody expressed in E. coli, purified on nickel; also called antibody No. 10; not shown: His tag from expression vector PET32b
B7: PDL1-94 dAb (VHH)
VHH: B6 VHH with G26L, V29F, E44Q, A50T, K58R, A60V, M63V, V96A
notes: camel heavy chain single domain antibody expressed in E. coli, purified on nickel; also called antibody No. 94; not shown: His tag from expression vector PET32b

biological target: T1, PDL1-Fc fusion protein (human); assay: ELISA, dAb coated 0.5 ug/well, dilution series of PDL1-Fc, anti-human IgG-Fc-HRP
T1 construct: expressed in CHO or HEK293 cells; also called Human PDL1-Fc; recombinant human PDL1-Fc

Row | Binder | EC50 [ng/mL]
1 | B1 | ~5

biological target: T2, Fc protein; assay: ELISA, Fc protein coated, 100 ng dAb per well
T2 construct: counter-screen antigen for the Fc moiety of PDL1-Fc

Row | Binder | OD (against Fc)
2 | B2 | 0.065 OD (405 nm)
3 | B1 | 0.08 OD (405 nm)
4 | B3 | 0.085 OD (405 nm)
5 | B4 | 0.124 OD (405 nm)
6 | B5 | 0.165 OD (405 nm)
7 | B6 | 0.099 OD (405 nm)
8 | B7 | 0.085 OD (405 nm)

biological target: T1, PDL1-Fc fusion protein; assay: competitive ELISA, PDL1-Fc coated, dilution series of antibody with 100 ug/mL PD1-Fc-Biotin (competitor)

Row | Binder | IC50 [µg/mL]
9 | B1 | ~0.917

biological target: T1, PDL1-Fc fusion protein; assay: ELISA, ratio of OD on PDL1-Fc to OD of blank control

Row | Binder | OD (PDL1/blank) [ratio]
10 | B2 | 36.7
11 | B1 | 48.5
12 | B3 | 49.6
13 | B4 | 41.4
14 | B5 | 21.7
15 | B6 | 15.8
16 | B7 | 16.2

biological target: T3, human PDL1 protein on the cell membrane (human, UniProt Q9NZQ7 19-290); assay: flow cytometry competition: 293-PDL1 cells, single domain antibody plus hPD-1-Fc-biotin 0.3 µg (blocked ligand), SA-PE; right panel
T3 construct: whole, on cells; also used here for Raji-PDL1 cells and for native PDL1 on lung cancer tissue sections; also called Raji-PDL1

Row | Binder | binding result
17 | B6 | binds

biological target: T1, PDL1-Fc fusion protein; assay: ELISA, ratio of OD on PDL1-Fc to OD on Fc protein

Row | Binder | OD (PDL1/Fc) [ratio]
18 | B2 | 30.5
19 | B1 | 32.8
20 | B3 | 31.5
21 | B4 | 18
22 | B5 | 7.1
23 | B6 | 8.63
24 | B7 | 10.3

biological target: T1, PDL1-Fc fusion protein; assay: competitive ELISA: PDL1-Fc coated 0.5 µg/well, dilution series of the antibody with PD1-Fc-Biotin 100 µg/mL (blocked ligand), SA-HRP, OD405; the sheet labels it EC50, paragraph 198 calls it IC50; unit from the axis

Row | Binder | IC50 [µg/mL]
25 | B1 | 0.917

biological target: T1, PDL1-Fc fusion protein; assay: ELISA, PDL1-Fc coated, 100 ng dAb per well, anti-His detection

Row | Binder | OD (against PDL1)
26 | B2 | 1.98 OD (405 nm)
27 | B1 | 2.62 OD (405 nm)
28 | B3 | 2.68 OD (405 nm)
29 | B4 | 2.24 OD (405 nm)
30 | B5 | 1.17 OD (405 nm)
31 | B6 | 0.854 OD (405 nm)
32 | B7 | 0.875 OD (405 nm)

biological target: T1, PDL1-Fc fusion protein; assay: SPR, BIAcore X100, PDL1-Fc on CM5 chip, antibody as analyte, 25 C

Row | Binder | Kd [nM]
33 | B1 | 0.771
34 | B3 | 0.548

biological target: T4, Mouse PDL1-Fc protein (mouse); assay: ELISA, mouse PDL1-Fc coated, anti-His detection
T4 construct: expressed in HEK293 cells; also called mouse PDL1-Fc fusion protein; mice PDL1-Fc

Row | Binder | binding result
35 | B6 | no binding (tested: 100 ng per well)

biological target: T1, PDL1-Fc fusion protein; assay: ELISA: plate coated with the single domain antibody 0.5 µg/well, dilution series of PDL1-Fc, anti-human IgG-Fc-HRP, OD405, four-parameter fit; unit from the axis 'Log Conc(ng/mL)', the concentration of PDL1-Fc

Row | Binder | EC50 [ng/mL]
36 | B1 | 5.68

biological target: T1, PDL1-Fc fusion protein; assay: competitive ELISA, PDL1-Fc coated, 100 ng dAb and 10 ug PD1-Fc-Biotin (competitor); remaining PD1-Fc-Biotin signal

Row | Binder | OD
37 | B1 | 0.161 OD (405 nm)
38 | B3 | 0.429 OD (405 nm)
39 | B4 | 0.897 OD (405 nm)
40 | B6 | 0.126 OD (405 nm)
